In patent US20190352422A1 (PCM TARGETECH, published 2019):

B1: Mouse Zt/g4 (antibody, from another filing, V domains shown)
VH: EVQLQQSGAELVKPGASVKLSCTTSGFNIIDTYIHWVNQKPDQGLEWIGRIDPADGNRKSDPKFQVKATITVDTSSNTAYLQLSSLTSGDTAVYYCARGYGNLNAMDSWGQGTSVTVSS
VL: DIQMNQSPSSLSASLGDTITITCHASQNINVWLNWYQQKPGNIPKLLIYKASNLHTGVPSRFSGSGSGTGFTLTISSLQPEDIATYYCQQGQSYPLTFGGGTKLEIK
B2: Humanized PCM5B14 H2L4 (IgG1/κ, designated as H5B14) (antibody, V domains shown)
VH: QVQLVQSGAEVKKPGATVKISCKVSGYTFTDYHMDWVQQAPGKGLEWMGDINPNNGGAIYNQKFKGRVTITADTSTDTAYMELSSLRSEDTAVYYCARSHYDYAGGAWFAYWGQGTLVTVSR
VL: EIVMTQSPGTLSLSPGERATLSCKSSQSLLFSGNQKNYLAWYQQKPGQAPRLLIYWASTRASGIPDRFSGSGSGTDFTLTISRLEPEDFAVYYCQQYYSFPRTFGQGTKLEIKR
notes: also called H5B14H2L4; Humanized 5B14

What was measured:
human RON receptor [1] = target: T1, human RON receptor (human, UniProt Q04912 25-1400); test: cell-based or functional assay
human RON receptor [2] = target: T1, human RON receptor; test: flow cytometry on HT29 cells, FITC-coupled anti-human IgG1 secondary
Procedure: Colon cancer HT29 cell line expressing ˜19,000 RON molecules per cell were used as the model. Mouse PCM5B14 was used as the positive control. Individual H5B14 clones at different concentrations were incubated with cells followed by addition of FITC-coupled anti-human IgG1 antibody. Fluorescence intensities from individual samples were analyzed using the BD flow cytometer. Results in FIG. 2 are the dose-dependent specific binding of individual H5B14s. […] Results in Table 1 show the individual values reflecting the binding affinity and sensitivity of individual H5B14 clones to human RON receptor.

| Binder | Internalization efficacy of cell surface RON (EC50, hours), Breast T-47D (human RON receptor [1]) [h] | Internalization efficacy of cell surface RON (EC50, hours), Colon HT-29 (human RON receptor [1]) [h] | Internalization efficacy of cell surface RON (EC50, hours), Lung H358 (human RON receptor [1]) [h] | Internalization efficacy of cell surface RON (EC50, hours), Pancreatic L3.6p1 (human RON receptor [1]) [h] | EC50 (human RON receptor [2]) [µg/mL] | LogEC50 (human RON receptor [2]) |
| --- | --- | --- | --- | --- | --- | --- |
| B1 | 23.5 | 11 | 7.47 | 14.1 |  |  |
| B2 | 8.26 | 5.33 | 7.94 | 8.17 | 2.22 | 0.346 log(µg/ml) |
